Laboratory results taken from patent US20250027073A1.
pKd: −log10 of the molar value. Values joined by “and” are separate entries in the source; they are usually repeats but may differ in a detail not shown here. Equal values may be shown once. Read-outs that look alike come from different tables or passages of the source.

What was measured:
[1] = target: pp65495-503 tetramer-positive primary human T cells (their TCRs)
[2] = target: CMV-pp65495-503-TCR, on Jurkat T cells
[3] = target: CMV-pp65495-503-TCR, on Jurkat T cells; remark: listed apart in the source
[4] = target: CMV-pp65495-503-TCR, on Jurkat T cells; remark: listed apart in the source
[5] = target: pp65495-503 tetramer-positive primary human T cells (their TCRs); remark: listed apart in the source
[6] = target: NY-ESO-1 TCR, clone 1G4 mutated version (a95:LY) with high affinity, on Jurkat T cells; assay: cell-based or functional assay
[7] = target: CMV-pp65495-503-TCR, on Jurkat T cells; assay: cell-based or functional assay
[8] = target: NY-ESO-1 TCR, clone 1G4 mutated version (a95:LY) with high affinity, on Jurkat T cells
[9] = target: Flu-m158-66-TCR, on Jurkat T cells
[10] = target: peptide on HLA-A*02:01 (human)
[11] = target: peptide on HLA-A*02:01 (human); remark: listed apart in the source
[12] = target: NY-ESO-1 peptide on HLA-A*02:01 (human)
[13] = target: NY-ESO-1 TCR, clone 1G4 mutated version (a95:LY) with high affinity, on Jurkat T cells; remark: listed apart in the source
[14] = target: NY-ESO-1 TCR, clone 1G4 mutated version (a95:LY) with high affinity, on Jurkat T cells; remark: listed apart in the source
[15] = target: anti-SAR2-RBD BCR on B cells (RBD antibody of PDB 7BWJ with human IgG1 Fc and PDGFR TM); assay: flow cytometry; GFP viruses displaying RBD on RBD-BCR+ B cells
[16] = target: Anti-Her2 BCR on B cells (from Trastuzumab vector, with PDGFR TM); assay: flow cytometry; GFP viruses displaying HER2 on HER2-BCR+ B cells

“CMV pp65495-503 (…) presented by HLA-A0201, single-chain trimer of pMHC displayed on the lentiviral surface (from UniProt P61769 21-119) (peptide-MHC)” showed a percent of tetramer+ T cells labeled [1] of 99%, a percent of antigen+ cells matched with the corresponding TCR sequence [2] of 99.8% and a percent of tetramer positive cells that were GFP+ [3] greater than 90%. For the same substance, the percent of T cells GFP+ [4] was greater than 87%, the percent of tetramer-positive T cells labeled [5] was 83% and the percent of tetramer-positive T cells recovered [5] was 98%. For the same substance, the GFP transgene expression after infection (cargo delivery) [6] was 0.22%, the GFP transgene expression after infection (cargo delivery) [7] was 82% and the depletion of on-target T cells after HSV-TK gene delivery and GCV treatment, against GFP gene delivery [7] was 8 fold.
“HPV16 E782-91 peptide presented by HLA-A2, single-chain trimer of pMHC displayed on the lentiviral s (from UniProt P03129 82-91; P61769 21-119) (peptide-MHC)” gave a percent of T cells labeled (GFP+) [8] of 1%, a percent of T cells labeled (GFP+) [4] of 1% and a percent of T cells labeled (GFP+) [9] of 1%.
For “NY-ESO-1 TCR, clone 1G4, wild-type (1G4 wt)”, the pKd [10] was 4.97 and 4.07, the pKd [11] was 4.97 and 4.07 and the pKd [12] was 4.97 and 4.07.
For “NY-ESO-1157-165 (…) presented by HLA-A0201, single-chain trimer of pMHC displayed on the lentiviral surface (from UniProt P61769 21-119) (peptide-MHC)”, the percent of TCR-T cells stained [13] was 95.7%, the percent of antigen+ cells matched with the corresponding TCR sequence [14] was 97.4% and the percent of T cells GFP+ [8] was greater than 87%. The percent of T cells labeled (GFP+) [8] was 88.2%.
“Receptor Binding Domain (RBD) from SARS-CoV-2 spike protein fused with ICAM1 TM domain, displayed on (from UniProt P0DTC2 319-541)” showed a percent of B cells labeled (GFP+) [15] of 88%.
Work on “truncated Her2 (a1-a700) with its native TM domain, displayed on the lentiviral surface (from UniProt P04626 23-700) (receptor)” yielded a percent of B cells detected (GFP+) [16] of 76%.
